Experiments:
[1] = test system: B55; assay: Binding of proteins to panel of purified B55 mutants; conditions: panel of B55 mutants covering patch 1-3 residues
[2] = test system: B55; assay: MS of B55 WT, V228A, I284A, S287A and D340A immunopurifications; assay type: binding; conditions: B55 S287A vs WT immunopurifications

| Molecule | B55 patch requirement for binding [1] | requirement of B55 S287 (patch 2) for binding [2] |
| --- | --- | --- |
| CDCA4: helix-loop-helix B55 binder (SERTA domain) (protein, UniProt Q9BXL8 1-241, looked up) Cell division …: MFARGLKRKCVGHEEDVEGALAGLKTVSSYSLQRQSLLDMSLVKLQLCHMLVEPNLCRSVLIANTVRQIQEEMTQDGTWRTVAPQAAERAPLDRLVSTEILCRAAWGQEGAHPAPGLGDGHTQGPVSDLCPVTSAQAPRHLQSSAWEMDGPRENRGSFHKSLDQIFETLETKNPSCMEELFSDVDSPYYDLDTVLTGMMGGARPGPCEGLEGLAPATPGPSSSCKSDLGELDHVVEILVET | requirements from residues in patch 1 and 3 | – |
| IER2: helix-loop-helix B55 binder (protein, UniProt Q9BTL4 1-223, looked up) Immediate early response gene …: MEVQKEAQRIMTLSVWKMYHSRMQRGGLRLHRSLQLSLVMRSARELYLSAKVEALEPEVSLPAALPSDPRLHPPREAESTAETATPDGEHPFPEPMDTQEAPTAEETSACCAPRPAKVSRKRRSSSLSDGGDAGLVPSKKARLEEKEEEEGASSEVADRLQPPPAQAEGAFPNLARVLQRRFSGLLNCSPAAPPTAPPACEAKPACRPADSMLNVLVRAVVAF | requirements from residues in patch 1 and 3 | does not |

— publication PMC10871369 (bioRxiv, 2024)
